In the RNAGym collection of RNA variant scans (doi:10.7554/elife.90254):

B1: OR4K15 (parent)
chain: GUUAACGGUCAUAGGCCAUGGAAACUAGGAGCACCAUUUCGCUGCCAGUGAAGAAAUGAACAAAGAAAAUCUGGGCCAGGCAGGCAUCAAAAGAAAUAGUCUUGCGCUCAACCAGAAAGUCUGUAAUCAUUUUAAGGGUA

Variants of: B1
Experiment: self-cleavage, relative activity (ratio to wild type); higher = more cleavage; in vitro, sequencing; the parent is a self-cleaving ribozyme

| Variant | self-cleavage |
| --- | --- |
| GUUAACGGUCAUAGGCCAUGGAGACUAGGAGCACCAUUUCGGUGCCAGUGAAGAAAUGAACAAAGAAAAUCUGGGCCAGGCAGGCAUCAAAAGAAAUAGUCUUGCGCUCAACCAGAAAGUCUGUAAUCAUUUUAAGGGUA [A23G C42G] | 1.11 |
| GUUAACGGUCAUAGGCCAUGGAGACUAGGAGCACCAUUUCGCUGCCAGUGAAGAAAUGAACAAAGAAAAUCUGGGCCAGGCAGACAUCAAAAGAAAUAGUCUUGCGCUCAACCAGAAAGUCUGUAAUCAUUUUAAGGGUA [A23G G84A] | 1.58 |
| GUUAACGGUCAUAGGCCAUGGAGACUAGGAGCACCAUUUCGCUGCCAGAGAAGAAAUGAACAAAGAAAAUCUGGGCCAGGCAGGCAUCAAAAGAAAUAGUCUUGCGCUCAACCAGAAAGUCUGUAAUCAUUUUAAGGGUA [A23G U49A] | 1.12 |
| GUUAACGGUCAUAGGCCAUGGAGACUAGGAGCACCAUUUCGCUGCCAGGGAAGAAAUGAACAAAGAAAAUCUGGGCCAGGCAGGCAUCAAAAGAAAUAGUCUUGCGCUCAACCAGAAAGUCUGUAAUCAUUUUAAGGGUA [A23G U49G] | 1.02 |
| GUUAACGGUCAUAGGCCAUGGAGACUAGGAGCACCAUUUCGCUGCCAGUGAAGAAAUGAACAAAGAAAAUCUGGGCCAGACAGGCAUCAAAAGAAAUAGUCUUGCGCUCAACCAGAAAGUCUGUAAUCAUUUUAAGGGUA [A23G G80A] | 0.31 |
| GUUAACGGUCAUAGGCCAUGGAGACUAGGAGCACCAUUUCGCUGCCAGUGAAGAAAUGAACAAAGAAAAUCUGGGCCAGGCAGGCAUCAAAAGAAAUAGACUUGCGCUCAACCAGAAAGUCUGUAAUCAUUUUAAGGGUA [A23G U100A] | 0.74 |
| GUUAACGGUCAUAGGCCAUGGAGACUAGGAGCACCAUUUCGCUGCCAGUGAAGAAAUGAACAAAGAAAAUCUGGGCCAGGCAGGCAUCAAAAGAAAUAGCCUUGCGCUCAACCAGAAAGUCUGUAAUCAUUUUAAGGGUA [A23G U100C] | 1.72 |
| GUUAACGGUCAUAGGCCAUGGAGACUAGGAGCACCAUUUCGCUGCCAGUGAAGAAAUGAACAAAGAAAAUCUGGGCCAGGCAGGCAUCAAAAGAAAUAGUCUCGCGCUCAACCAGAAAGUCUGUAAUCAUUUUAAGGGUA [A23G U103C] | 0.77 |
| GUUAACGGUCAUAGGCCAUGGAGACUAGGAGCACCAUUUCGCUGCCAGUGAAGAAAUGAACAAAGAAAAUCUGGCCCAGGCAGGCAUCAAAAGAAAUAGUCUUGCGCUCAACCAGAAAGUCUGUAAUCAUUUUAAGGGUA [A23G G75C] | 0.16 |
| GUUAACGGUCAUAGGCCAUGGAGACUAAGAGCACCAUUUCGCUGCCAGUGAAGAAAUGAACAAAGAAAAUCUGGGCCAGGCAGGCAUCAAAAGAAAUAGUCUUGCGCUCAACCAGAAAGUCUGUAAUCAUUUUAAGGGUA [A23G G28A] | 0.93 |
| GUUAACGGUCAUAGGCCAUGGAGACUAGGAGCACCAUUUCGCUGCCAGUGAAGAAAUGAACAAAGAAAAUCUGGGCCAGGCAGGCAUCAAAAGAAAUAGUCAUGCGCUCAACCAGAAAGUCUGUAAUCAUUUUAAGGGUA [A23G U102A] | 0.82 |
| GUUAACGGUCAUAGGCCAUGGAGACUAGGAGCACCAAUUCGCUGCCAGUGAAGAAAUGAACAAAGAAAAUCUGGGCCAGGCAGGCAUCAAAAGAAAUAGUCUUGCGCUCAACCAGAAAGUCUGUAAUCAUUUUAAGGGUA [A23G U37A] | 1.24 |
| GUUAACGGUCAUAGGCCAUGGAGACUAGGAGCACCAUUUCGCUUCCAGUGAAGAAAUGAACAAAGAAAAUCUGGGCCAGGCAGGCAUCAAAAGAAAUAGUCUUGCGCUCAACCAGAAAGUCUGUAAUCAUUUUAAGGGUA [A23G G44U] | 1.21 |
| GUUAACGGUCAUAGGCCAUGGAGACUAGGAGCACCAUUUCACUGCCAGUGAAGAAAUGAACAAAGAAAAUCUGGGCCAGGCAGGCAUCAAAAGAAAUAGUCUUGCGCUCAACCAGAAAGUCUGUAAUCAUUUUAAGGGUA [A23G G41A] | 1.29 |
| GUUAACGGUCAUAGGCCAUGGAGACUAGGAGCACCAUUUCGCUGCCAGUGAAGAAAUGAACAAAGAAAAUUUGGGCCAGGCAGGCAUCAAAAGAAAUAGUCUUGCGCUCAACCAGAAAGUCUGUAAUCAUUUUAAGGGUA [A23G C71U] | 0.31 |
| GUUAACGGUCAUAGGCCAUGGAGACUAGGAGCACCAUUUCGCUGCCAGUGAAGAAAUGAACAAAGAAAACCUGGGCCAGGCAGGCAUCAAAAGAAAUAGUCUUGCGCUCAACCAGAAAGUCUGUAAUCAUUUUAAGGGUA [A23G U70C] | 0.64 |
| GUUAACGGUCAUAGGCCAUGGAGACUAGGAGCACCAUUUCGCUGCCAGUGAAGAAAUGAACAAAGAAAAACUGGGCCAGGCAGGCAUCAAAAGAAAUAGUCUUGCGCUCAACCAGAAAGUCUGUAAUCAUUUUAAGGGUA [A23G U70A] | 0.97 |
| GUUAACGGUCAUAGGCCAUGGAGACUAGGAGCACCAUUUCGCUGCCAGUGAAGAAAUGAACAAAGAAAAUCUGGGCCAGGCAGGCAUCAAAAGAAAUAGUCUUACGCUCAACCAGAAAGUCUGUAAUCAUUUUAAGGGUA [A23G G104A] | 0.03 |
| GUUAACGGUCAUAGGCCAUGGAGACUAGGAGCACCAUUUCGCUGCCAGUGAAGAAAUGAACAAAGAAAAUCUGGGCCAGGCAGGCAUCAAAAGAAAUAGUCUUGCGCUCAACCAGAAAGUCUGUAAUCAUUUUAAGGGUU [A23G A140U] | 1.15 |
| GUUAACGGUCAUAGGCCAUGGAGACUAGGAGCACCAUUUCGCAGCCAGUGAAGAAAUGAACAAAGAAAAUCUGGGCCAGGCAGGCAUCAAAAGAAAUAGUCUUGCGCUCAACCAGAAAGUCUGUAAUCAUUUUAAGGGUA [A23G U43A] | 0.88 |
| GUUAACGGUCAUAGGCCAUGGAGACUAGGAGCACCAUUUCGCUGCCAGUGAAGAAAUGAACAAAGAAAAUCUGGGCUAGGCAGGCAUCAAAAGAAAUAGUCUUGCGCUCAACCAGAAAGUCUGUAAUCAUUUUAAGGGUA [A23G C77U] | 2.07 |

| Variant | self-cleavage |
| --- | --- |
| GUUAACGGUCAUAGGCCAUGGAGACUAGGAGCACCAUUUCGCUGCCAGUGAAGAAAUGAACAAAGAAAAUCAGGGCCAGGCAGGCAUCAAAAGAAAUAGUCUUGCGCUCAACCAGAAAGUCUGUAAUCAUUUUAAGGGUA [A23G U72A] | 0.23 |
| GUUAACGGUCAUAGGCCAUGGAGACUAGGAGCACCAUUUCGCUGCCAGUGAAGAAAUGAACAAAGAAAAUCUGGGCCAGGCAGGCAUCAAAAGAAAUAGUCUUGCGCUCAACCAGAAAGUCUGUAAUCAUUUUAAGAGUA [A23G G137A] | 1.04 |
| GUUAACGGUCAUAGGCCAUGGAGACUAGGAGCACCAUUUCGCUGCCAGUGAAGAAAUGAACAAAGAAAAUCUGGGCCAGGCAAGCAUCAAAAGAAAUAGUCUUGCGCUCAACCAGAAAGUCUGUAAUCAUUUUAAGGGUA [A23G G83A] | 1.24 |
| GUUAACGGUCAUAGGCCAUGGAGACUAGGAGCACCAUUUCGCUGCCAGUGAAGAAAUGAACAAAGAAAAUCUGGGCCAGGCAGGCAUCAAAAGAAAUAGUCUUGCGCCCAACCAGAAAGUCUGUAAUCAUUUUAAGGGUA [A23G U108C] | 0.03 |
| GUUAACGGUCAUAGGCCAUGGAGACUAGGAGCACCAUUUCGCUGCCAGUGAAGAAAUGAACAAAGAAAAUCUGGGCCAGGCAGGCAUCAAAAGAAAUAGUCUUGCGCGCAACCAGAAAGUCUGUAAUCAUUUUAAGGGUA [A23G U108G] | 0 |
| GUUAACGGUCAUAGGCCAUGGAGACUAGGAGCACCAUUUCGCUGCCAGUGAAGAAAUGAACAAAGAAAAUCUGGGCCAGGCAGGCAUCAAAAGAAAUAGUCUUGCGCUCAACCAGAAAGUUUGUAAUCAUUUUAAGGGUA [A23G C121U] | 2.12 |
| GUUAACGGUCAUAGGCCAUGGAGACUAGGAGCACCAUUUCGCUGCCAGUGAAGAAAUGAACAAAGAAAAUCUGGGCCAGGCAGGCAUCAAAAGAAAUAGUCUUGCGCUCAACCAGAAAGUCUGUAAUCAUUAUAAGGGUA [A23G U132A] | 0.86 |
| GUUAACGGUCAUAGGCCAUGGAGACUAGGAGCACCAUUUCGCUGUCAGUGAAGAAAUGAACAAAGAAAAUCUGGGCCAGGCAGGCAUCAAAAGAAAUAGUCUUGCGCUCAACCAGAAAGUCUGUAAUCAUUUUAAGGGUA [A23G C45U] | 1.23 |
| GUUAACGGUCAUAGGCCAUGGAGACUAGGAGCACCAUUUCGCUGCCAGUGAAGAAAAGAACAAAGAAAAUCUGGGCCAGGCAGGCAUCAAAAGAAAUAGUCUUGCGCUCAACCAGAAAGUCUGUAAUCAUUUUAAGGGUA [A23G U57A] | 0.53 |
| GUUAACGGUCAUAGGCCAUGGAGACUAGGAGCACCAUUUCGCUGCCAGUGAAGAAACGAACAAAGAAAAUCUGGGCCAGGCAGGCAUCAAAAGAAAUAGUCUUGCGCUCAACCAGAAAGUCUGUAAUCAUUUUAAGGGUA [A23G U57C] | 1.04 |
| GUUAACGGUCAUAGGCCAUGGAGACUAGGAGCACCAUUUCGCUGCCAGUGAAGAAAUGAACAAAGAAAAUCUGGGCCAGGCAGGCAUCAAAAGAAAUAGUCUUGGGCUCAACCAGAAAGUCUGUAAUCAUUUUAAGGGUA [A23G C105G] | 0.07 |
| GUUAACGGUCAUAGGCCAUGGAGACUAGGAGCACCAUUUCGCUGCCAGUGAAGAAAUGAACAAAGAAAAUCUGGGCCAGGCAGGCAUCAAAAGAAAUAGUCUUGCGCUCAACCAGAAAGUCAGUAAUCAUUUUAAGGGUA [A23G U122A] | 1.72 |
| GUUAACGGUCAUAGGCCAUGGAGACUAGGAGCACCAUUUCGCUGCCAGUGAACAAAUGAACAAAGAAAAUCUGGGCCAGGCAGGCAUCAAAAGAAAUAGUCUUGCGCUCAACCAGAAAGUCUGUAAUCAUUUUAAGGGUA [A23G G53C] | 1.82 |
| GUUAACGGUCAUAGGCCAUGGAGACUAGGAGCACCAUCUCGCUGCCAGUGAAGAAAUGAACAAAGAAAAUCUGGGCCAGGCAGGCAUCAAAAGAAAUAGUCUUGCGCUCAACCAGAAAGUCUGUAAUCAUUUUAAGGGUA [A23G U38C] | 1.38 |
| GUUAACGGUCAUAGGCCAUGGAGACUAGGAGCACCAUUACGCUGCCAGUGAAGAAAUGAACAAAGAAAAUCUGGGCCAGGCAGGCAUCAAAAGAAAUAGUCUUGCGCUCAACCAGAAAGUCUGUAAUCAUUUUAAGGGUA [A23G U39A] | 0.98 |
| GUUAACGGUCAUAGGCCAUGGAGACUAGGAGCACCAUUUCGCUGCCAGUGAAGAAAUGAACAAAGAAAAUCUGGGCCAGGCAGGCAUCAAAAGAAAGAGUCUUGCGCUCAACCAGAAAGUCUGUAAUCAUUUUAAGGGUA [A23G U97G] | 1.16 |
| GUUAACGGUCAUAGGCCAUGGAGACCAGGAGCACCAUUUCGCUGCCAGUGAAGAAAUGAACAAAGAAAAUCUGGGCCAGGCAGGCAUCAAAAGAAAUAGUCUUGCGCUCAACCAGAAAGUCUGUAAUCAUUUUAAGGGUA [A23G U26C] | 1.42 |
| GUUAACGGUCAUAGGCCAUGGAGACAAGGAGCACCAUUUCGCUGCCAGUGAAGAAAUGAACAAAGAAAAUCUGGGCCAGGCAGGCAUCAAAAGAAAUAGUCUUGCGCUCAACCAGAAAGUCUGUAAUCAUUUUAAGGGUA [A23G U26A] | 1.22 |
| GUUAACGGUCAUAGGCCAUGGAGACUAGGAGCACCAUUUCGCUGCCAGUGAAGAAAUGAACAAAGAAAAUCUGGGCCAGGCAGGCAUCAAAAGAAAUAGUCUUGCGCUCAACCAGAAAGUCUGUAAUCACUUUAAGGGUA [A23G U130C] | 0.57 |
| GUUAACGGUCAUAGGCCAUGGAGACUAGGAGCACCAUUUUGCUGCCAGUGAAGAAAUGAACAAAGAAAAUCUGGGCCAGGCAGGCAUCAAAAGAAAUAGUCUUGCGCUCAACCAGAAAGUCUGUAAUCAUUUUAAGGGUA [A23G C40U] | 1.37 |
